Among the data in patent publication US20160166675A1 are OD450nm values, retold here.

For the experiment, the target named is purified EV71 virus-like particles (purified antigen solution of Example 5) (EV71 (enterovirus 71), C4a subtype) (UniProt B9VUU3). Briefly: indirect ELISA, VLP coated 1 ug/ml, control serum. (In an ELISA, binding on a coated surface is turned into a signal by an enzyme label.)

Several values for one entry are separate records, joined by “and”; a condition that tells them apart may be missing. Equal entries are not always repeated.

With Negative serum, the OD450nm was 0.049 OD and 0.051 OD.
